Measurements as given in patent publication US20180258152.
Read-outs that look alike come from different tables or passages of the source. Each block holds one binder with its values, some of them ahead of it. No end group written: not given here.

Tests used:
Settings in all cases: modification not given
[1] = molecular target: T1, human GIP receptor (GIPR) (human), P48546; assay: other, Schild cAMP
T1 chain: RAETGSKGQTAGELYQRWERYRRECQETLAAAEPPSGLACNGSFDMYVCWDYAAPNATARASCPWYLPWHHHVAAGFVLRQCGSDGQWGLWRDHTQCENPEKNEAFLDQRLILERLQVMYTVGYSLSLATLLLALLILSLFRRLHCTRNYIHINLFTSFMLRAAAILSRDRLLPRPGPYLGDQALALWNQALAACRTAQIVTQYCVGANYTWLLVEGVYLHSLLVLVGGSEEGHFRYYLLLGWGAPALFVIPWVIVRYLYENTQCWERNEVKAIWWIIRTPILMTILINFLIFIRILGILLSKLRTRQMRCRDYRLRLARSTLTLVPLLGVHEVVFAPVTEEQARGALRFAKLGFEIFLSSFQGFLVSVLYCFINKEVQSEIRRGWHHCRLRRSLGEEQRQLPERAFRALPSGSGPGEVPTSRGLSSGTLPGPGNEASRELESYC

[2] = molecular target: T1, human GIP receptor (GIPR) (human), …; assay: competition, 125I-GIP(1-42)
[3] = molecular target: T1, human GIP receptor (GIPR) (human), …; assay: competition
[4] = molecular target: T1, human GIP receptor (GIPR) (human), …
[5] = molecular target: T1, human GIP receptor (GIPR) (human), …; assay: competition
[6] = molecular target: T1, human GIP receptor (GIPR) (human), …; assay: competition
[7] = molecular target: T1, human GIP receptor (GIPR) (human), …; assay: competition, 125I-GIP(1-30)NH2
[8] = molecular target: T1, human GIP receptor (GIPR) (human), …; assay: competition, 125I-GIP(2-30)NH2
[9] = molecular target: T1, human GIP receptor (GIPR) (human), …; assay: competition, 125I-GIP(3-30)NH2
[10] = molecular target: T1, human GIP receptor (GIPR) (human), …; assay: competition, 125I-hGIP
[11] = molecular target: T1, human GIP receptor (GIPR) (human), …

Binder: EGTFISDYSIAMDAIAQQDFVNWLLAQK [hGIP(3-30)K16A H18A]
Ki [1]: 15 nM

Binder: EGTFISDYSIAMEKIAQQDFVNWLLAQK [hGIP(3-30)D15E H18A]
Ki [1]: 7.9 nM

Binder: TFISDYSIAMDKIHQQDFVNWLLAQK (not fully specified (C-terminus)) [GIP(5-30)NH2]
Ki [1]: 15.2 nM
Ki [2]: 5.9 nM

Binder: FISDYSIAMDKIHQQDFVNWLLAQK (not fully specified (C-terminus)) [GIP(6-30)NH2]
IC50 [7]: 1060 nM
IC50 [8]: 340 nM
IC50 [9]: 370 nM
Ki [2]: 347 nM

Binder: EGTFISDYSIAMDKIKQQDFVNWLLAQK [hGIP(3-30)H18K]
Ki [1]: 37 nM
IC50 [10]: 7.8 nM

Binder: AEGTFISDYSIAMDKIHQQDFVNWLLAQK (not fully specified (C-terminus)) [GIP(2-30)NH2]
IC50 [7]: 26 nM
IC50 [8]: 2.7 nM
IC50 [9]: 7.7 nM
Ki [2]: 14.3 nM

The remaining lines, values ahead:

Ki [1]: 35 nM
Binder: EGTFISDYSIAMDKIAQQDFVNWLLAQK [hGIP(3-30)H18A]

Ki [2]: 21.5 nM
Binder: GTFISDYSIAMDKIHQQDFVNWLLAQK (not fully specified (C-terminus)) [GIP(4-30)NH2]

IC50 [3]: 3.4 nM
Ki [3]: 2.3 nM
Ki [4]: 14.9 nM
IC50 [5]: 0.76 nM
IC50 [6]: 4.4 nM
Binder: EGTFISDYSIAMDKIHQQDFVNWLLAQK [GIP(3-30)NH2]

Ki [2]: 79 nM
Binder: SDYSIAMDKIHQQDFVNWLLAQK (not fully specified (C-terminus)) [GIP(8-30)NH2]

Ki [2]: 307 nM
Binder: DYSIAMDKIHQQDFVNWLLAQK (not fully specified (C-terminus)) [GIP(9-30)NH2]

IC50 [3]: 16 nM
Ki [11]: 15 nM
Binder: EGTFISDYSIAMDKIHQQDFVNWLLAQK [hGIP(3-30)]
